# B1: ELF3 (parent)
# chain: LSKEYWDCLEGKKSKHAPRGTHLW
# Variants of: B1
# Experiment: protein stability index of a GFP-peptide fusion (GPS, HEK-293T) (PSI 1-6); higher = more stable
# Settings: c terminus: a fixed tail appended
# 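Also: lentivirally expressed fusions sorted by FACS into six bins by GFP to DsRed ratio, PSI derived from sequencing read proportions per bin multiplied by bin number.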
row,Variant,protein stability index
1,LSKEYWDCLEGKKSQHAPRGTHLW,2.87
2,LSKEYWDCLEGKKSRHAPRGTHLW,3.44
3,LSKEYWDCLEGKKSSHAPRGTHLW,3.04
4,LSKEYWDCLEGKKSTHAPRGTHLW,3.26
5,LSKEYWDCLEGKKSVHAPRGTHLW,2.64
6,LSKEYWDCLEGKKSWHAPRGTHLW,2.93
7,LSKEYWDCLEGKKSYHAPRGTHLW,1.83
8,LSKEYWDCLEGKKSKAAPRGTHLW,2.72
9,LSKEYWDCLEGKKSKCAPRGTHLW,2.64
10,LSKEYWDCLEGKKSKDAPRGTHLW,3.25
11,LSKEYWDCLEGKKSKEAPRGTHLW,3.14
12,LSKEYWDCLEGKKSKFAPRGTHLW,2.64
13,LSKEYWDCLEGKKSKGAPRGTHLW,2.88
14,LSKEYWDCLEGKKSKIAPRGTHLW,2.87
15,LSKEYWDCLEGKKSKKAPRGTHLW,3.05
16,LSKEYWDCLEGKKSKLAPRGTHLW,2.68
17,LSKEYWDCLEGKKSKMAPRGTHLW,2.3
18,LSKEYWDCLEGKKSKNAPRGTHLW,3.2
19,LSKEYWDCLEGKKSKPAPRGTHLW,2.65
20,LSKEYWDCLEGKKSKQAPRGTHLW,2.86
21,LSKEYWDCLEGKKSKRAPRGTHLW,2.4
22,LSKEYWDCLEGKKSKSAPRGTHLW,2.52
23,LSKEYWDCLEGKKSKTAPRGTHLW,3.43
24,LSKEYWDCLEGKKSKVAPRGTHLW,2.94

row,Variant,protein stability index
1,LSKEYWDCLEGKKSKWAPRGTHLW,2.24
2,LSKEYWDCLEGKKSKYAPRGTHLW,3.54
3,LSKEYWDCLEGKKSKHCPRGTHLW,3.33
4,LSKEYWDCLEGKKSKHDPRGTHLW,2.69
5,LSKEYWDCLEGKKSKHEPRGTHLW,3.58
6,LSKEYWDCLEGKKSKHFPRGTHLW,2.78
7,LSKEYWDCLEGKKSKHGPRGTHLW,3.65
8,LSKEYWDCLEGKKSKHHPRGTHLW,2.5
9,LSKEYWDCLEGKKSKHIPRGTHLW,3.06
10,LSKEYWDCLEGKKSKHKPRGTHLW,2.86
11,LSKEYWDCLEGKKSKHLPRGTHLW,2.45
12,LSKEYWDCLEGKKSKHMPRGTHLW,3.06
13,LSKEYWDCLEGKKSKHNPRGTHLW,2.99
14,LSKEYWDCLEGKKSKHPPRGTHLW,3.21
15,LSKEYWDCLEGKKSKHQPRGTHLW,3.4
16,LSKEYWDCLEGKKSKHRPRGTHLW,2.38
17,LSKEYWDCLEGKKSKHSPRGTHLW,3.12
18,LSKEYWDCLEGKKSKHTPRGTHLW,2.86
19,LSKEYWDCLEGKKSKHVPRGTHLW,3.02
20,LSKEYWDCLEGKKSKHWPRGTHLW,2.4
21,LSKEYWDCLEGKKSKHYPRGTHLW,2.65
22,LSKEYWDCLEGKKSKHAARGTHLW,2.68
23,LSKEYWDCLEGKKSKHACRGTHLW,2.53
24,LSKEYWDCLEGKKSKHADRGTHLW,3

row,Variant,protein stability index
1,LSKEYWDCLEGKKSKHAERGTHLW,3.01
2,LSKEYWDCLEGKKSKHAFRGTHLW,2.97
3,LSKEYWDCLEGKKSKHAGRGTHLW,2.46
4,LSKEYWDCLEGKKSKHAHRGTHLW,3.24
5,LSKEYWDCLEGKKSKHAIRGTHLW,2.6
6,LSKEYWDCLEGKKSKHAKRGTHLW,3.39
7,LSKEYWDCLEGKKSKHALRGTHLW,2.43
8,LSKEYWDCLEGKKSKHAMRGTHLW,2.31
9,LSKEYWDCLEGKKSKHANRGTHLW,3.36
10,LSKEYWDCLEGKKSKHAQRGTHLW,2.96
11,LSKEYWDCLEGKKSKHARRGTHLW,2.34
12,LSKEYWDCLEGKKSKHASRGTHLW,3.13
13,LSKEYWDCLEGKKSKHATRGTHLW,3.16
14,LSKEYWDCLEGKKSKHAVRGTHLW,2.79
15,LSKEYWDCLEGKKSKHAWRGTHLW,2.24
16,LSKEYWDCLEGKKSKHAYRGTHLW,2.73
17,LSKEYWDCLEGKKSKHAPAGTHLW,3.06
18,LSKEYWDCLEGKKSKHAPCGTHLW,2.6
19,LSKEYWDCLEGKKSKHAPDGTHLW,3.21
20,LSKEYWDCLEGKKSKHAPEGTHLW,3.63
21,LSKEYWDCLEGKKSKHAPFGTHLW,2.25
22,LSKEYWDCLEGKKSKHAPGGTHLW,2.68
23,LSKEYWDCLEGKKSKHAPHGTHLW,2.66
24,LSKEYWDCLEGKKSKHAPIGTHLW,2.38

row,Variant,protein stability index
1,LSKEYWDCLEGKKSKHAPKGTHLW,3.06
2,LSKEYWDCLEGKKSKHAPLGTHLW,2.27
3,LSKEYWDCLEGKKSKHAPMGTHLW,2.83
4,LSKEYWDCLEGKKSKHAPNGTHLW,2.83
5,LSKEYWDCLEGKKSKHAPPGTHLW,2.64
6,LSKEYWDCLEGKKSKHAPQGTHLW,3.79
7,LSKEYWDCLEGKKSKHAPSGTHLW,3.29
8,LSKEYWDCLEGKKSKHAPTGTHLW,2.85
9,LSKEYWDCLEGKKSKHAPVGTHLW,2.78
10,LSKEYWDCLEGKKSKHAPWGTHLW,2.58
11,LSKEYWDCLEGKKSKHAPYGTHLW,2.18
12,LSKEYWDCLEGKKSKHAPRATHLW,2.45
13,LSKEYWDCLEGKKSKHAPRCTHLW,2.73
14,LSKEYWDCLEGKKSKHAPRDTHLW,2.96
15,LSKEYWDCLEGKKSKHAPRETHLW,2.59
16,LSKEYWDCLEGKKSKHAPRFTHLW,1.75
17,LSKEYWDCLEGKKSKHAPRHTHLW,2.53
18,LSKEYWDCLEGKKSKHAPRITHLW,1.54
19,LSKEYWDCLEGKKSKHAPRKTHLW,2.59
20,LSKEYWDCLEGKKSKHAPRLTHLW,2.55
21,LSKEYWDCLEGKKSKHAPRMTHLW,2.44
22,LSKEYWDCLEGKKSKHAPRNTHLW,2.74

# Reference: the supplement of paper PMC10567573
